Target: the molecule itself
Assay: cryo-EM structure; apo hSMPD2 at about 10 mg/mL in 25 mM Hepes pH 7.4, 150 mM NaCl, 2 mM Mg2+, 0.005% LMNG; final map refined with C2 symmetry

B1: human neutral sphingomyelinase 1 (hSMPD2), full length, wild type, twin-Strep tagged (enzyme, UniProt O60906 1-423, looked up)
chain: MKPNFSLRLRIFNLNCWGIPYLSKHRADRMRRLGDFLNQESFDLALLEEVWSEQDFQYLRQKLSPTYPAAHHFRSGIIGSGLCVFSKHPIQELTQHIYTLNGYPYMIHHGDWFSGKAVGLLVLHLSGMVLNAYVTHLHAEYNRQKDIYLAHRVAQAWELAQFIHHTSKKADVVLLCGDLNMHPEDLGCCLLKEWTGLHDAYLETRDFKGSEEGNTMVPKNCYVSQQELKPFPFGVRIDYVLYKAVSGFYISCKSFETTTGFDPHRGTPLSDHEALMATLFVRHSPPQQNPSSTHGPAERSPLMCVLKEAWTELGLGMAQARWWATFASYVIGLGLLLLALLCVLAAGGGAGEAAILLWTPSVGLVLWAGAFYLFHVQEVNGLYRAQAELQHVLGRAREAQDLGPEPQPALLLGQQEGDRTKEQ
notes: human SMPD2 (neutral sphingomyelinase 1), UniProt O60906, full length; cloned from human cDNA into pcDNA3.1(-); In the cryo-EM model the loop preceding TMH1 and residues 403-423 were disordered and not modelled; also called nSMase1; apo hSMPD2; source: HEK293F, transiently transfected, purified (membranes solubilised in LMNG, Strep-Tactin, size-exclusion chromatography)
With B1 the “stoichiometry N” value was 2.

From article PMC10682184, “Molecular basis for the catalytic mechanism of human neutral sphingomyelinases 1 (hSMPD2)” (Nature Communications, 2023)
